Entries after “also recorded” stand apart in the source; their conditions may differ.
Key:
rat plasma [1] = assay: Plasma clotting measurement in vitro, aPTT; format: biochemical, Sprague Dawley (SD) rats; details: at the same concentration
rat plasma [2] = assay: Plasma clotting measurement in vitro, PT; format: biochemical, Sprague Dawley (SD) rats; details: at the same concentration
rat plasma [3] = assay: Plasma clotting measurement in vitro, TT; format: biochemical, Sprague Dawley (SD) rats; details: at the same concentration
thrombin = thrombin (Homo sapiens, UniProt P00734); assay: Bio-layer interferometry; format: binding
DTIP C6A-C14A mutant = assay: BLI
DTIP D24A mutant = assay: BLI
DTIP E35A mutant = assay: BLI
DTIP Y3A mutant = assay: BLI
[4] = molecular target: direct thrombin inhibitor peptide (DTIP); assay: BLI

Question: With bivalirudin as the substance, how does the “aPTT of DTIP compared with bivalirudin” value (rat plasma [1]) read?
Answer: on the same order of magnitude

Question: What about the “PT of DTIP compared with bivalirudin” value (rat plasma [2]) of the same substance?
Answer: on the same order of magnitude

Question: What about the “TT of DTIP compared with bivalirudin” value (rat plasma [3]) of the same substance?
Answer: on the same order of magnitude

Question: Which “Binding of thrombin in BLI (in words)” value (thrombin) does the source give for enoxaparin sodium here?
Answer: no direct interaction; also recorded: No binding

Question: What does the source list for thrombin (enzyme)?
Answer: Kd (DTIP C6A-C14A mutant): 0.138 µM; Kd (DTIP D24A mutant): 0.194 µM; Kd (DTIP E35A mutant): 0.188 µM; Kd (DTIP Y3A mutant): 0.162 µM; Kd [4]: 0.164 µM
